Measurements from PMC2148147 (The Journal of Cell Biology, 1998).

T1: Cdc3p (S. cerevisiae, UniProt P32457 1-520)
T1 sequence: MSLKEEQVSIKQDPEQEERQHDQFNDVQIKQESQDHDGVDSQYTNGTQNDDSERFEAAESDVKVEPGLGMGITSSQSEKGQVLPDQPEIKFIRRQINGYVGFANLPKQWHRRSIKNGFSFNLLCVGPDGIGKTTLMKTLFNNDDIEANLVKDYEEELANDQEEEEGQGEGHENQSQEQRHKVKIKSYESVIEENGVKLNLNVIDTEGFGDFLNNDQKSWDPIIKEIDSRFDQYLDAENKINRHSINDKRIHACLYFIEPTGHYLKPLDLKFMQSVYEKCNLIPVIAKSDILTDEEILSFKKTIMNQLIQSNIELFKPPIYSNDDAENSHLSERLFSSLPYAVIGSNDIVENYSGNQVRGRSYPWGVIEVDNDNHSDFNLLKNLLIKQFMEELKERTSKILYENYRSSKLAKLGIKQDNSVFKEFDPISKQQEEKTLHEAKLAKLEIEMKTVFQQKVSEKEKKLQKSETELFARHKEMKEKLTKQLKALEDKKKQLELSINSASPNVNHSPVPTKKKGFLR


Biological target: T1, Cdc3p
Test: SEC + other: sucrose gradient sedimentation

stoichiometry N	Binder
~1 Cdc10p per Cdc3p (2:2)	Cdc10p (natural protein) MDPLSSVQPASYVGFDTITNQIEHRLLKKGFQFNIMVVGQSGLGKSTLINTLFASHLIDSATGDDISALPVTKTTEMKISTHTLVEDRVRLNINVIDTPGFGDFIDNSKAWEPIVKYIKEQHSQYLRKELTAQRERFITDTRVHAILYFLQPNGKELSRLDVEALKRLTEIANVIPVIGKSDTLTLDERTEFRELIQNEFEKYNFKIYPYDSEELTDEELELNRSVRSIIPFAVVGSENEIEINGETFRGRKTRWSAINVEDINQCDFVYLREFLIRTHLQDLIETTSYIHYEGFRARQLIALKENANSRSSAHMSSNAIQR
~1 Cdc12p per Cdc3p (2:2)	Cdc12p (natural protein) MSAATATAAPVPPPVGISNLPNQRYKIVNEEGGTFTVMLCGESGLGKTTFINTLFQTVLKRADGQQHRQEPIRKTVEIDITRALLEEKHFELRVNVIDTPGFGDNVNNNKAWQPLVDFIDDQHDSYMRQEQQPYRTKKFDLRVHAVLYFIRPTGHGLKPIDIETMKRLSTRANLIPVIAKADTLTAQELQQFKSRIRQVIEAQEIRIFTPPLDADSKEDAKSGSNPDSAAVEHARQLIEAMPFAIVGSEKKFDNGQGTQVVARKYPWGLVEIENDSHCDFRKLRALLLRTYLLDLISTTQEMHYETYRRLRLEGHENTGEGNEDFTLPAIAPARKLSHNPRYKEEENALKKYFTDQVKAEEQRFRQWEQNIVNERIRLNGDLEEIQGKVKKLEEQVKSLQVKKSHLK
~0.5 Cdc11p per Cdc3p (1:2)	Cdc11p (natural protein) MSGIIDASSALRKRKHLKRGITFTVMIVGQSGSGRSTFINTLCGQQVVDTSTTILLPTDTSTEIDLQLREETVELEDDEGVKIQLNIIDTPGFGDSLDNSPSFEIISDYIRHQYDEILLEESRVRRNPRFKDGRVHCCLYLINPTGHGLKEIDVEFIRQLGSLVNIIPVISKSDSLTRDELKLNKKLIMEDIDRWNLPIYNFPFDEDEISDEDYETNMYLRTLLPFAIIGSNEVYEMGGDVGTIRGRKYPWGILDVEDSSISDFVILRNALLISHLHDLKNYTHEILYERYRTEALSGESVAAESIRPNLTKLNGSSSSSTTTRRNTNPFKQSNNINNDVLNPASDMHGQSTGENNETYMTREEQIRLEEERLKAFEERVQQELLLKRQELLQREKELREIEARLEKEAKIKQEE
